Laboratory results from US20220041726A1 (Dana-Farber, published 2022).

Biological target: T1, mouse PD-1 (mouse, UniProt Q02242 25-288)
T1 construct: also called 300-mouse PD-1 transfectants; 300-PD-1 transfectants
T1 sequence: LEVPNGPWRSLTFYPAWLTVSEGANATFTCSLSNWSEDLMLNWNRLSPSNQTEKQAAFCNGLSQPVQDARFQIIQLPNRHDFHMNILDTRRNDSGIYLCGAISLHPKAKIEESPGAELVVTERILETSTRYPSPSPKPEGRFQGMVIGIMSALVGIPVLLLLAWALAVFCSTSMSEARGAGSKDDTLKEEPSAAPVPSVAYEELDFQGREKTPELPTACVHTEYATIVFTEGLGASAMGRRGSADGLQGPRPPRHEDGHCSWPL
Assay: hybridoma screened by flow cytometry on PD-1 transfectants; described in words only
Text: The mice were immunized first with human PD-1-mIgG2a fusion protein (made in Freeman lab) in complete Freund's adjuvant and thereafter with alternating doses of human PD-1-mIgG2a fusion protein and mouse PD-1-Ig fusion protein in incomplete Freund's adjuvant. Mice were given a final boost with antigen and fused with SP2/0 myeloma cells. The PD-1 specific hybridomas were first identified when this fusion was screened by flow cytometry on 300-human PD-1 and 300-mouse PD-1 transfectants. Hybridomas were subcloned to stability. The mAbs were characterized for their capacity to bind to human and/or mouse PD-1 and for their affinity.

B1: 8H3 mouse anti-mouse PD-1 mAb (antibody, mouse IgG1, V domains shown)
VH: QVQLQQSGAELARPGASVKMSCKASGYTFTSYTMHWVKQRPGQGLEWIGYIHPSTGYIYYNQKFKDKATLTADKSSSTAYMQLSSLTSEDSAVYYCARKGTYLFDYWGQGTTLTVSS
VL: DIVMTQSQKFMSTSVGDRVSVTCKASQNVGTNVAWYQQKPGQSPKALIYSASYRYSGVPDRFTGSGSGTDFTLTISNMQSEDLAEYFCQQYNNYPLTFGAGTMLELK
notes: the light chain is kappa; also called 332.8H3; αPD-1 mAb (8H3)
- binding result: binds
